Among the data in article PMC7136553 are FB remaining after addition of FD (Wes immunoassay with a mAb to Bb), 1-120 min values, retold here.

Assay [1] deals with C3(x)2 from methylamine treated C3 (peak 3 of the MonoS cation exchange column) (human) (UniProt P01024).
The target of assay [2] is C3(x)1 from methylamine treated C3 (peak 2 of the MonoS cation exchange column) (human) (UniProt P01024).
For the next assay, the target named is C3b (human) (UniProt P01024).

The substance Factor B (natural protein) showed an FB remaining after addition of FD (Wes immunoassay with a mAb to Bb), 1-120 min at 37°C in VB++: all at 1–5 min, 90% at 15 min, 60% at 120 min in assay [1] of 90%. In addition, in assay [2], the FB remaining after addition of FD (Wes immunoassay with a mAb to Bb), 1-120 min at 37°C in VB++: practically all at 1 min, 85% at 5 min, 60% at 15 min, 30–40% at 60–120 min came out at 85%. The FB remaining after addition of FD (Wes immunoassay with a mAb to Bb), 1-120 min at 37°C in VB++: 90% at 1 min, ca. 60% at 5 min, 25% at 15 min, almost all consumed at 30 min with C3b (human) was 90%.
